According to publication doi:10.1101/2023.04.09.536162:

Target: L-threonine aldolase from Neptunomonas marine (NmLTA), wild type (Neptunomonas marine)
Assay: crystal structure

## L-threonine aldolase from Neptunomonas marine (NmLTA), wild type (enzyme)
  stoichiometry N: 4
